Our source for the Kd values is article PMC5595889.

For the test, the target named is mouse importin α1 lacking the N-terminal importin-β-binding domain (ΔIBB-importin α1) (mouse). As to the kind of experiment: ITC. (In general: Isothermal titration calorimetry measures the heat released or taken up as one component is titrated into another.)

In general, Kd refers to the constant that tells how readily two partners part at equilibrium. Take influenza NLS2-K peptide (198-[…]-216): the dissociation constant Kd came to 72.4 µM.
